Reference: US20110166062A1 (INDIANA UNIVERSITY RESEARCH AND TECHNOLOGY, published 2011)
*1 amine or outer side, *2 acyl side, *3 side chain or, on linkers, in order; H or OH if unused. Bridges are numbered along the chain shown (N, C = ends). Primed or numbered codes have the meaning given here. Where no end group is shown, it is not given here. Side-chain parts run from the residue outwards. [ ]: non-standard residue; d: D form. The star is where a group is joined. Cys(PEG 40 kDa) = Cys with a 40 kDa PEG covalently attached to its side chain (alpha amino acetyl-capped, Ac); PEG 40 kDa″ = polyethylene glycol of 40 kDa covalently attached to the side chain; γGlu = O=C(O)[C@H](CCC(=O)[*:2])N[*:1]; Palmitoyl = CCCCCCCCCCCCCCCC(=O)*; Myristoyl = CCCCCCCCCCCCCC(=O)*; PEG = not defined here; Aib = CC(C)(N)C(=O)O

Tests used:
Experiment in all cases: cell-based or functional assay
GIP receptor [1] = target: T1, GIP receptor (UniProt P48546 22-466)
T1 sequence (looked up): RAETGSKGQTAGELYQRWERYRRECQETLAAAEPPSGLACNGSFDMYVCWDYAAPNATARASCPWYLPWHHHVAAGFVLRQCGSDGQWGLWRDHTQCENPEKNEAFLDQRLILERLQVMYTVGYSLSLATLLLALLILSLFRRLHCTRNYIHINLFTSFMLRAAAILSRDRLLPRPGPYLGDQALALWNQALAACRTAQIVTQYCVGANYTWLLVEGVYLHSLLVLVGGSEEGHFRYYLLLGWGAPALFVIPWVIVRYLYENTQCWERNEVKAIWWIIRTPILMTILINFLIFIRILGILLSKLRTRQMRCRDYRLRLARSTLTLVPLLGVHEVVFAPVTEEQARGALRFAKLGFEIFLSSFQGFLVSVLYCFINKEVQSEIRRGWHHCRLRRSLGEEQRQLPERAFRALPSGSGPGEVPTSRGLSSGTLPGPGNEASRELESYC

glucagon receptor [2] = target: glucagon receptor (UniProt P47871 26-477, limits assumed)
Target sequence in this assay (P47871 26-477 limits assumed): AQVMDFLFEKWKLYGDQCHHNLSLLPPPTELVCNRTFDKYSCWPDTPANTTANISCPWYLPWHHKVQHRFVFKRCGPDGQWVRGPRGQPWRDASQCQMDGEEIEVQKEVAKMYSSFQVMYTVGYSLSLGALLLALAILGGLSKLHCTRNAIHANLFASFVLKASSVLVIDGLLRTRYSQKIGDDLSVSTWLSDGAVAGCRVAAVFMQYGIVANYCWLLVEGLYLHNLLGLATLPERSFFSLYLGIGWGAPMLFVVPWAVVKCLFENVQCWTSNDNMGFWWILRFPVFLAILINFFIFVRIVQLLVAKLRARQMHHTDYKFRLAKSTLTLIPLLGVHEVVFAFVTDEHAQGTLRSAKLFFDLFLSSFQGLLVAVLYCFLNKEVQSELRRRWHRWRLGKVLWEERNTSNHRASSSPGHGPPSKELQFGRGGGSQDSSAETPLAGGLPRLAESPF

GLP-1 receptor [3] = target: GLP-1 receptor (UniProt P43220 24-463, limits assumed)
GLP-1 receptor [4] = target: GLP-1 receptor (UniProt P43220 24-463, limits assumed); remark: listed apart in the source
GIP receptor [5] = target: T2, GIP receptor (UniProt P48546 22-466); remark: listed apart in the source
T2 sequence (looked up): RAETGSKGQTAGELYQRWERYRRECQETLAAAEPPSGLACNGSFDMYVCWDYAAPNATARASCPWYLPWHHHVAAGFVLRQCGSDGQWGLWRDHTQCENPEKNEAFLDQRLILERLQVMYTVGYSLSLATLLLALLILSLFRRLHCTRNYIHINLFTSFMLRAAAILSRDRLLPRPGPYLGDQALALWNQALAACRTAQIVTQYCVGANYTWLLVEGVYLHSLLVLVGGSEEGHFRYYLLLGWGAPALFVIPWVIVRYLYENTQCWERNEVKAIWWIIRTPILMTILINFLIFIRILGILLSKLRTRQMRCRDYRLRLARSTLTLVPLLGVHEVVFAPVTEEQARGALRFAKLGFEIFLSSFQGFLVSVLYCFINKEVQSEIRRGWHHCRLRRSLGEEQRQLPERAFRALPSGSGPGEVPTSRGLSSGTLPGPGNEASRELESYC

glucagon receptor [6] = target: glucagon receptor (UniProt P47871 26-477, limits assumed); remark: listed apart in the source
Target sequence in this assay (P47871 26-477 limits assumed): as the sequence (P47871 26-477 limits assumed) above

B1: mt-241 (peptide)
peptide: Y[Aib]QGTFTSDYSIYLD[Aib]QAAKEFVNWLLAGGPSSGAPPPSC-NH2
modifications: N-terminus assumed
SMILES: CC[C@H](C)[C@H](NC(=O)[C@H](CO)NC(=O)[C@H](Cc1ccc(O)cc1)NC(=O)[C@H](CC(=O)O)NC(=O)[C@H](CO)NC(=O)[C@@H](NC(=O)[C@H](Cc1ccccc1)NC(=O)[C@@H](NC(=O)CNC(=O)[C@H](CCC(N)=O)NC(=O)C(C)(C)NC(=O)[C@@H](N)Cc1ccc(O)cc1)[C@@H](C)O)[C@@H](C)O)C(=O)N[C@@H](Cc1ccc(O)cc1)C(=O)N[C@@H](CC(C)C)C(=O)N[C@@H](CC(=O)O)C(=O)NC(C)(C)C(=O)N[C@@H](CCC(N)=O)C(=O)N[C@@H](C)C(=O)N[C@@H](C)C(=O)N[C@@H](CCCCN)C(=O)N[C@@H](CCC(=O)O)C(=O)N[C@@H](Cc1ccccc1)C(=O)N[C@H](C(=O)N[C@@H](CC(N)=O)C(=O)N[C@@H](Cc1c[nH]c2ccccc12)C(=O)N[C@@H](CC(C)C)C(=O)N[C@@H](CC(C)C)C(=O)N[C@@H](C)C(=O)NCC(=O)NCC(=O)N1CCC[C@H]1C(=O)N[C@@H](CO)C(=O)N[C@@H](CO)C(=O)NCC(=O)N[C@@H](C)C(=O)N1CCC[C@H]1C(=O)N1CCC[C@H]1C(=O)N1CCC[C@H]1C(=O)N[C@@H](CO)C(=O)N[C@@H](CS)C(N)=O)C(C)C
GIP receptor [1]
  EC50: 0.252 nM
  relative activity: 4.37%
Glucagon receptor [2]
  EC50: 2.84 nM
  relative activity: 3.73%
GLP-1 receptor [3]
  EC50: 0.023 nM
  relative activity: 130%

B2: mt-357 (peptide)
peptide: Y[Aib]QGTFISDYSIYLDKQAA[Aib]EFVNWLLAGGPSSGAPPPSK-NH2
modifications: N-terminus assumed
SMILES: CC[C@H](C)[C@H](NC(=O)[C@H](CO)NC(=O)[C@H](Cc1ccc(O)cc1)NC(=O)[C@H](CC(=O)O)NC(=O)[C@H](CO)NC(=O)[C@@H](NC(=O)[C@H](Cc1ccccc1)NC(=O)[C@@H](NC(=O)CNC(=O)[C@H](CCC(N)=O)NC(=O)C(C)(C)NC(=O)[C@@H](N)Cc1ccc(O)cc1)[C@@H](C)O)[C@@H](C)CC)C(=O)N[C@@H](Cc1ccc(O)cc1)C(=O)N[C@@H](CC(C)C)C(=O)N[C@@H](CC(=O)O)C(=O)N[C@@H](CCCCN)C(=O)N[C@@H](CCC(N)=O)C(=O)N[C@@H](C)C(=O)N[C@@H](C)C(=O)NC(C)(C)C(=O)N[C@@H](CCC(=O)O)C(=O)N[C@@H](Cc1ccccc1)C(=O)N[C@H](C(=O)N[C@@H](CC(N)=O)C(=O)N[C@@H](Cc1c[nH]c2ccccc12)C(=O)N[C@@H](CC(C)C)C(=O)N[C@@H](CC(C)C)C(=O)N[C@@H](C)C(=O)NCC(=O)NCC(=O)N1CCC[C@H]1C(=O)N[C@@H](CO)C(=O)N[C@@H](CO)C(=O)NCC(=O)N[C@@H](C)C(=O)N1CCC[C@H]1C(=O)N1CCC[C@H]1C(=O)N1CCC[C@H]1C(=O)N[C@@H](CO)C(=O)N[C@@H](CCCCN)C(N)=O)C(C)C
GLP-1 receptor [4]
  EC50, nM; GLP-1 Receptor: 1.25 nM
  relative activity; GLP-1 Receptor: 0.86%
GIP receptor [5]
  EC50, nM; GIP Receptor: 0.0066 nM
  relative activity; GIP Receptor: 206%
Glucagon receptor [6]
  EC50, nM; Glucagon Receptor: 0.042 nM
  relative activity; Glucagon Receptor: 261%

B3: mt-358 (peptide)
peptide: Y[Aib]QGTFISDYSIYLDKQAA[Aib]EFVNWLLAGGPSSGAPPPSK(Palmitoyl)-NH2
modifications: N-terminus assumed
SMILES: CCCCCCCCCCCCCCCC(=O)NCCCC[C@H](NC(=O)[C@H](CO)NC(=O)[C@@H]1CCCN1C(=O)[C@@H]1CCCN1C(=O)[C@@H]1CCCN1C(=O)[C@H](C)NC(=O)CNC(=O)[C@H](CO)NC(=O)[C@H](CO)NC(=O)[C@@H]1CCCN1C(=O)CNC(=O)CNC(=O)[C@H](C)NC(=O)[C@H](CC(C)C)NC(=O)[C@H](CC(C)C)NC(=O)[C@H](Cc1c[nH]c2ccccc12)NC(=O)[C@H](CC(N)=O)NC(=O)[C@@H](NC(=O)[C@H](Cc1ccccc1)NC(=O)[C@H](CCC(=O)O)NC(=O)C(C)(C)NC(=O)[C@H](C)NC(=O)[C@H](C)NC(=O)[C@H](CCC(N)=O)NC(=O)[C@H](CCCCN)NC(=O)[C@H](CC(=O)O)NC(=O)[C@H](CC(C)C)NC(=O)[C@H](Cc1ccc(O)cc1)NC(=O)[C@@H](NC(=O)[C@H](CO)NC(=O)[C@H](Cc1ccc(O)cc1)NC(=O)[C@H](CC(=O)O)NC(=O)[C@H](CO)NC(=O)[C@@H](NC(=O)[C@H](Cc1ccccc1)NC(=O)[C@@H](NC(=O)CNC(=O)[C@H](CCC(N)=O)NC(=O)C(C)(C)NC(=O)[C@@H](N)Cc1ccc(O)cc1)[C@@H](C)O)[C@@H](C)CC)[C@@H](C)CC)C(C)C)C(N)=O
GLP-1 receptor [4]
  EC50, nM; GLP-1 Receptor: 0.083 nM
  relative activity; GLP-1 Receptor: 13%
GIP receptor [5]
  EC50, nM; GIP Receptor: 0.0045 nM
  relative activity; GIP Receptor: 306%
Glucagon receptor [6]
  EC50, nM; Glucagon Receptor: 0.0087 nM
  relative activity; Glucagon Receptor: 1270%

## Y[Aib]QGTFTSDYSIYLDEQAAKEFVNWLLAGGPSSGAPPPSK([Ala-Cys(PEG 40 kDa)-Ac])-NH2 (lactam 16-20) [mt-225]
GLP-1 receptor [4]
  EC50, nM; GLP-1 Receptor: 0.098 nM
GIP receptor [5]
  EC50, nM; GIP Receptor: 1.9 nM
Glucagon receptor [6]
  EC50, nM; Glucagon Receptor: 2.71 nM

B4: mt-294 (peptide)
peptide: Y[Aib]EGTFTSDYSIYLDEQAAKEFVNWLLAGGPSSGAPPPSC(PEG)-NH2
modifications: lactam 16-20; reading uncertain; also: PEG on Cys40 via thioether from haloacetyl
GLP-1 receptor [4]
  EC50, nM; GLP-1 Receptor: 0.0608 nM
  relative activity; GLP-1 Receptor: 12.7%
GIP receptor [5]
  EC50, nM; GIP Receptor: 0.373 nM
  relative activity; GIP Receptor: 2.95%
Glucagon receptor [6]
  EC50, nM; Glucagon Receptor: 230 nM
  relative activity; Glucagon Receptor: 0.01%

## Y[Aib]QGTFTSDYSIYLD[Aib]QAAKEFVNWLLAGGPSSGAPPPSC(PEG 40 kDa″)-NH2 [mt-248]
GIP receptor [1]
  EC50: 3.23 nM
  relative activity: 0.53%
Glucagon receptor [2]
  EC50: 16.7 nM
  relative activity: 0.37%
GLP-1 receptor [3]
  EC50: 0.103 nM
  relative activity: 9.71%

B5: mt-354 (peptide)
peptide: Y[Aib]EGTFTSDYSIYLDKQAA[Aib]EFVNWLLAGGPSSGAPPPSK(Myristoyl)C-NH2
modifications: also: homodimer: two monomers linked by a disulfide bond between their C-terminal Cys41 residues
GLP-1 receptor [4]
  EC50, nM; GLP-1 Receptor: 0.0088 nM
  relative activity; GLP-1 Receptor: 137%
GIP receptor [5]
  EC50, nM; GIP Receptor: 0.0046 nM
  relative activity; GIP Receptor: 91.7%
Glucagon receptor [6]
  EC50, nM; Glucagon Receptor: 2.61 nM
  relative activity; Glucagon Receptor: 1.45%

## Y[Aib]EGTFTSDYSIYLDKQAA[Aib]EFVNWLLAGGPSSGAPPPSK([γGlu-γGlu-Palmitoyl])-NH2 [mt-367]
GLP-1 receptor [4]
  EC50, nM; GLP-1 Receptor: 0.0039 nM
GIP receptor [5]
  EC50, nM; GIP Receptor: 0.0014 nM
Glucagon receptor [6]
  EC50, nM; Glucagon Receptor: 0.82 nM

B6: mt-356 (peptide)
peptide: Y[Aib]QGTFTSDYSIYLDKQAA[Aib]EFVNWLMNGGPSSGAPPPSK-NH2
modifications: N-terminus assumed
SMILES: CC[C@H](C)[C@H](NC(=O)[C@H](CO)NC(=O)[C@H](Cc1ccc(O)cc1)NC(=O)[C@H](CC(=O)O)NC(=O)[C@H](CO)NC(=O)[C@@H](NC(=O)[C@H](Cc1ccccc1)NC(=O)[C@@H](NC(=O)CNC(=O)[C@H](CCC(N)=O)NC(=O)C(C)(C)NC(=O)[C@@H](N)Cc1ccc(O)cc1)[C@@H](C)O)[C@@H](C)O)C(=O)N[C@@H](Cc1ccc(O)cc1)C(=O)N[C@@H](CC(C)C)C(=O)N[C@@H](CC(=O)O)C(=O)N[C@@H](CCCCN)C(=O)N[C@@H](CCC(N)=O)C(=O)N[C@@H](C)C(=O)N[C@@H](C)C(=O)NC(C)(C)C(=O)N[C@@H](CCC(=O)O)C(=O)N[C@@H](Cc1ccccc1)C(=O)N[C@H](C(=O)N[C@@H](CC(N)=O)C(=O)N[C@@H](Cc1c[nH]c2ccccc12)C(=O)N[C@@H](CC(C)C)C(=O)N[C@@H](CCSC)C(=O)N[C@@H](CC(N)=O)C(=O)NCC(=O)NCC(=O)N1CCC[C@H]1C(=O)N[C@@H](CO)C(=O)N[C@@H](CO)C(=O)NCC(=O)N[C@@H](C)C(=O)N1CCC[C@H]1C(=O)N1CCC[C@H]1C(=O)N1CCC[C@H]1C(=O)N[C@@H](CO)C(=O)N[C@@H](CCCCN)C(N)=O)C(C)C
GLP-1 receptor [4]
  EC50, nM; GLP-1 Receptor: 0.0048 nM
  relative activity; GLP-1 Receptor: 224%
GIP receptor [5]
  EC50, nM; GIP Receptor: 0.053 nM
  relative activity; GIP Receptor: 25.7%
Glucagon receptor [6]
  EC50, nM; Glucagon Receptor: 0.0869 nM
  relative activity; Glucagon Receptor: 126%
